From patent US10772972B2, “Anti-STEAP2 antibody drug conjugates, and compositions and uses thereof” (Regeneron Pharmaceuticals, Inc., priority 2016, dated 2020)
Values belong to the molecule of their own block, whether it stands above or below them.

Key:
cynomolgus T cells = assay: FACS binding titration of STEAP2xCD3 bispecifics on cynomolgus T cells; settings: 66.6 nM to 0.001 nM, 30 minutes at 4° C.
Protocol: FACS Binding Titration on Jurkat Cells, PC3_STEAP2/1 Cells and cynomolgus T Cells: Flow cytometric analysis was utilized to determine binding of STEAP2×CD3 bispecific antibodies to Jurkat, PC3_STEAP2/1 chimeric and cynomolgus T cells, followed by detection with a phycoerythrin (PE)-labeled anti-human IgG antibody. Briefly, 2×10^5 cells/well were incubated for 30 minutes at 4° C. with a serial dilution of STEAP2×CD3 bispecific antibodies or control antibody (a human IgG1 antibody that binds a feline antigen with no cross-reactivity to STEAP2 or human or cynomolgus CD3) ranging from 66.6 nM to 0.001 nM. After incubation, the cells were washed twice with cold PBS containing 1% filtered FBS and a PE-conjugated anti-human secondary antibody was added to the cells and incubated for an additional 30 minutes. Wells containing no antibody or secondary antibody only were used as a control. After incubation, cells were washed, re-suspended in 200 μL cold PBS containing 1% filtered FBS and analyzed by flow cytometry on a BD FACS Canto II.

monkey PBMCs = assay: T cell proliferation assay, cynomolgus PBMC; assay type: cell-based; settings: for Cynomolgus PBMC proliferation activity (in words): across donors tested
Protocol: Thawed human or freshly isolated monkey PBMCs (50,000 cells/well) were incubated with 3-fold (human, concentration range: 5E-10M to 2.82E-15M; cynomolgus, concentration range: 1E-09M to 4.57E-13M) serial dilutions of STEAP2×CD3 bispecifics or isotype control in complete medium (RPMI supplemented with 10% FBS, 100 U/mL penicillin, 100 μg/mL streptomycin, 292 μg/mL L-glutamine) and a fixed concentration (human: 200 ng/mL, cyno: 500 ng/mL) of a commercial anti-CD28 antibody (Biolegend, Catalog #302914) in white flat bottom 96-well plates for 72 hours at 37° C. Isolated monkey PBMCs were from two donors (identified as mk8781M or mk9381M). Following incubation, CellTiter Glo® (Promega, Cat #7573) was added and luminescence, as readout for cell viability, was measured using a VICTOR X5 multi-label plate reader. Cell titer was calculated by dividing the luminescence of stimulated cells by the baseline luminescence of unstimulated cells.

[1] = test system: C4-2 cells (high-STEAP2 expressing); assay: Internalization and total binding on C4-2 cells (imaging, qualitative score); assay type: cell-based, human; parameters: key: − (no internalization or binding); +(weak internalization or binding); ++(moderate internalization or binding); +++(robust internalization or binding); settings: 10 μg/ml antibody
Protocol: Briefly, 20,000 C4-2 cells were seeded in PDL coated 96 well plates. The next day, cells were incubated with anti-human STEAP2 antibodies (10 μg/ml) for 30 min on ice followed by two PBS washes. Cells were then incubated with alexa488-conjugated anti-hFc Fab secondary antibody for 30 minutes on ice, followed by two additional PBS washes. Antibodies were allowed to internalize for 1 h at 37° C. in internalization buffer (PBS+2% FBS) or were maintained at 4° C. Cells were fixed in 4% formaldehyde, nuclei were stained with DRAQ5 (Cell signaling), and images were acquired on the ImageXpress micro XL (Molecular Devices).
A qualitative visual assessment of the total binding intensity and the intensity of antibodies that had internalized into vesicles was performed and scored according to the following criteria: − (no internalization or binding), +(weak internalization or binding), ++(moderate internalization or binding) and +++(robust internalization or binding).

[2] = test system: human prostate cancer C4-2 cells (xenograft); assay: C4-2/human PBMC co-implant xenograft in NSG mice, immediate dosing; assay type: in vivo, mouse; settings: C4-2/NSG; for Tumor growth compared to isotype control at study endpoint (in words): 0.1 or 0.01 mg/kg
Description: To assess the in vivo efficacy of the anti-STEAP2/anti-CD3 bispecifics in human tumor xenograft studies, NOD scid gamma (NSG) mice (Jackson Laboratories, Bar Harbor, Me.) were co-implanted with human peripheral blood mononuclear cells (PBMCs; ReachBio LLC., Seattle, Wash.) along with human prostate cancer C4-2 cells (MD Anderson Cancer Center, Houston Tex.) which endogenously express STEAP2.
Briefly, 5.0×10^6 C4-2 cells were co-implanted subcutaneously (s.c.) with 1.25×10^6 human PBMCs in a 50:50 mix of matrigel matrix (BD Biosciences, San Jose, Calif.) into the right flank of male NSG mice. Mice were treated intraperitoneally (i.p.) on the day of implantation (immediate treatment model) with anti-STEAP2/anti-CD3 bispecifics BSSTEAP2/CD3-001, BSSTEAP2/CD3-002 or BSSTEAP2/CD3-003, or an isotype control, at a dose of 0.1 or 0.01 mg/kg (N=5 mice/group).
Tumor size was measured 2×/week using calipers and tumor volume calculated as Volume=(length×width^2)/2. Data is shown as tumor size (mm^3) at study endpoint, 46 d post-tumor implantation (Table 7).

[3] = 0.01 mg/kg i.p. on day of implantation
[4] = 0.1 mg/kg i.p. on day of implantation

EC50 (cynomolgus T cells): 1.99 nM
B1: BSSTEAP2/CD3-004: STEAP2×CD3 bispecific: anti-STEAP2 H1H7814N (SEQ 218), anti-CD3 H1H7251P (SEQ 1570), common LCVR SEQ 226 (antibody, V domains shown)
VH 1: QVQLVESGGGVVQPGRSLRLSCVASGFTISSYGMNWVRQAPGKGLEWVAVISYDGGNKYSVDSVKGRFTISRDNSKNTLYLQMNSLRAEDSAVYYCARGRYFDLWGRGTLVTVSS
VH 2: EVQLVESGGGLVQPGRSLRLSCAASGFTFADYTMHWVRQGPGTGLEWVSDIGWSGGSLGYADSVKGRFTISRDNAKNSLYLEMNNLRPEDTALYYCVKDKSGYGKFQYGLDVWGQGTTVTVSS
VL: DIQMTQSPSTLSASVGDRVTITCRASQSISSWLAWYQQKPGRAPNLLISKASSLKSGVPSRFSGSGSGTEFTLTVSSLQPDDFATYYCQQYYSYSYTFGQGTKLEIK
Cynomolgus PBMC proliferation activity (in words) (monkey PBMCs): donor dependent

B2: H1H7814N: human-Fc anti-STEAP2 antibody, HCVR/LCVR SEQ ID NOs 218/226 (antibody, V domains shown)
VH: QVQLVESGGGVVQPGRSLRLSCVASGFTISSYGMNWVRQAPGKGLEWVAVISYDGGNKYSVDSVKGRFTISRDNSKNTLYLQMNSLRAEDSAVYYCARGRYFDLWGRGTLVTVSS
VL: DIQMTQSPSTLSASVGDRVTITCRASQSISSWLAWYQQKPGRAPNLLISKASSLKSGVPSRFSGSGSGTEFTLTVSSLQPDDFATYYCQQYYSYSYTFGQGTKLEIK
modifications: human Fc
Internalization (37° C., 1 h) Qualitative Score [1]: +
Total Binding (4° C.) Qualitative Score [1]: +

B3: BSSTEAP2/CD3-002: STEAP2×CD3 bispecific: anti-STEAP2 HCVR H2M11162N (SEQ 250), anti-CD3 HCVR CD3-VH-G5 (SEQ 1762), common LCVR SEQ 258 (antibody, V domains shown)
VH 1: QVQLQQSGPGLVKPSQTLSLTCAISGDSVSSNRAAWNWIRQSPSRGLQWLGRTYYRSKWYNDYAVSLRSRITINPVTSKNQVALHMNSVTPEDTAVYYCARAGIVVVPGPETFYYYDHGLDVWGQGTTVTVSS
VH 2: EVQLVESGGGLVQPGRSLRLSCAASGFTFDDYSMHWVRQAPGKGLEWVSGISWNSGSIGYADSVKGRFTISRDNAKNSLYLQMNSLRAEDTALYYCAKDGSGYGKFYYYGMDVWGQGTTVTVSS
VL: DIQMTQSPSSLSASVGDRVTITCRASQSIRSYLNWYQQKPGKAPELLIHAASSLQSGVPSRFSGSGSGTDFTLTISSLQPEDFASYYCQQSYSAPPITFGQGTRLEIK
Tumor Size (mm^3) 46 d post-tumor implantation (mean ± SD) [2, 3]: 17.0 ± 8.0 mm^3
Tumor Size (mm^3) 46 d post-tumor implantation (mean ± SD) [2, 4]: 15.0 ± 12.0 mm^3
Tumor growth compared to isotype control at study endpoint (in words) [2]: significantly suppressed tumor growth

B4: H2M11164N: anti-STEAP2 antibody, mouse IgG2 Fc, HCVR/LCVR SEQ ID NOs 282/290 (antibody, V domains shown)
VH: QVQLQQSGPGLVKPSQTLSLTCVISGDSVSTNSAAWNWIRQSPSRGLEWLGRTYYRSKWYNDYAVSVRSRITINPVTSKNQVALHLNSVTPEDTAVYYCARAGIVVVPGPETYYYYYHGLDVWGQGTTVTVSS
VL: DIQMTQSPSSLSASVGDRVTITCRASQNIRSYLNWYQQKPGKAPKLLIHVASSLQSGVPSRFSGSGSGTDFTLTISSLQPEDFATYYCQQSYSTPPITFGHGTRLEIK
modifications: mouse IgG2 Fc
Internalization (37° C., 1 h) Qualitative Score [1]: +++
Total Binding (4° C.) Qualitative Score [1]: +++

EC50 (cynomolgus T cells): 7.99 nM
B5: BSSTEAP2/CD3-006: STEAP2×CD3 bispecific: anti-STEAP2 H1H11162 (SEQ 250), anti-CD3 CD3-VH-P (SEQ 1882), common LCVR SEQ 258 (antibody, V domains shown)
VH 1: QVQLQQSGPGLVKPSQTLSLTCAISGDSVSSNRAAWNWIRQSPSRGLQWLGRTYYRSKWYNDYAVSLRSRITINPVTSKNQVALHMNSVTPEDTAVYYCARAGIVVVPGPETFYYYDHGLDVWGQGTTVTVSS
VH 2: EVQLVESGGGLVQPGRSLRLSCVASGFTFDDYSMHWVRQAPGKGLEWVSGISWNSGSKDYADSVKGRFTISRDNAKNSLYLQMNSLRAEDTALYYCAKYGSGYGKFYHYGLDVWGQGTTVTVSS
VL: DIQMTQSPSSLSASVGDRVTITCRASQSIRSYLNWYQQKPGKAPELLIHAASSLQSGVPSRFSGSGSGTDFTLTISSLQPEDFASYYCQQSYSAPPITFGQGTRLEIK
Cynomolgus PBMC proliferation activity (in words) (monkey PBMCs): induced robust cynomolgus PBMC proliferation in all donors tested
EC50 (monkey PBMCs; donor mk9381M, anti-CD28 500 ng/mL, 72 hours, read-out: Cyno PBMC Proliferation [M] (donor)): 1.53e-11 M

B6: BSSTEAP2/CD3-003: STEAP2×CD3 bispecific: anti-STEAP2 HCVR H2M11162N (SEQ 250), anti-CD3 HCVR CD3-VH-G20 (SEQ 1866), common LCVR SEQ 258 (antibody, V domains shown)
VH 1: QVQLQQSGPGLVKPSQTLSLTCAISGDSVSSNRAAWNWIRQSPSRGLQWLGRTYYRSKWYNDYAVSLRSRITINPVTSKNQVALHMNSVTPEDTAVYYCARAGIVVVPGPETFYYYDHGLDVWGQGTTVTVSS
VH 2: EVQLVESGGGLVQPGRSLRLSCAASGFTFDDYSMHWVRQAPGKGLEWVSGISWNSGSIGYADSVKGRFTISRDNAKNSLYLQMNSLRAEDTALYYCAKYGSGYGKFYYYGMDVWGQGTTVTVSS
VL: DIQMTQSPSSLSASVGDRVTITCRASQSIRSYLNWYQQKPGKAPELLIHAASSLQSGVPSRFSGSGSGTDFTLTISSLQPEDFASYYCQQSYSAPPITFGQGTRLEIK
Tumor Size (mm^3) 46 d post-tumor implantation (mean ± SD) [2, 3]: 25.0 ± 21.0 mm^3
Tumor Size (mm^3) 46 d post-tumor implantation (mean ± SD) [2, 4]: 19.0 ± 12.0 mm^3
Tumor growth compared to isotype control at study endpoint (in words) [2]: significantly suppressed tumor growth

B7: H2M11162N: anti-STEAP2 antibody, mouse IgG2 Fc, HCVR/LCVR SEQ ID NOs 250/258 (antibody, V domains shown)
VH: QVQLQQSGPGLVKPSQTLSLTCAISGDSVSSNRAAWNWIRQSPSRGLQWLGRTYYRSKWYNDYAVSLRSRITINPVTSKNQVALHMNSVTPEDTAVYYCARAGIVVVPGPETFYYYDHGLDVWGQGTTVTVSS
VL: DIQMTQSPSSLSASVGDRVTITCRASQSIRSYLNWYQQKPGKAPELLIHAASSLQSGVPSRFSGSGSGTDFTLTISSLQPEDFASYYCQQSYSAPPITFGQGTRLEIK
modifications: mouse IgG2 Fc
Internalization (37° C., 1 h) Qualitative Score [1]: +++
Total Binding (4° C.) Qualitative Score [1]: +++

B8: H1H11880P: anti-STEAP2 antibody, HCVR/LCVR SEQ ID NOs 34/42 (antibody, V domains shown)
VH: EVQLVESGGGLVQPGGSLRLSCAASGFTFSTYAMHWVRQAPGKGLQHVSTISTNGVNTYYADSVKGRFTISRDNSKSTLYLQMGSLRAEDMAVYYCARDKDFWSGYFDYWGQGTLVTVSS
VL: EIVMTQSPGTLSVSPGERATLSCRASQSVSSNLAWYHQKPGQAPRLLIYGASTRATGFPARFSGSGSGTEFTLTISSLQSEDFAAYYCQQYNNWPITFGQGTRLEIK
Internalization (37° C., 1 h) Qualitative Score [1]: +
Total Binding (4° C.) Qualitative Score [1]: +
